According to patent US20140072613A1 (published 2014):

Assays:
Experiment in all cases: cell-based or functional assay
GRK6(h) = GRK6(h) (human, UniProt P43250 1-576)
HIPK3(h) = HIPK3(h) (human, UniProt Q9H422 163-562, limits assumed)
Met(Y1248D)(h) = Met(Y1248D)(h) (human, UniProt P08581-2 974-1408, limits assumed)
MSK2(h) = MSK2(h) (human, UniProt O75676 1-772, limits assumed)
PAK5(h) = PAK5(h) (human, UniProt Q9P286 1-719, limits assumed)
PRAK(h) = molecular target: T1, PRAK(h) (human, UniProt Q8IW41 1-473, limits assumed)
T1 sequence (looked up): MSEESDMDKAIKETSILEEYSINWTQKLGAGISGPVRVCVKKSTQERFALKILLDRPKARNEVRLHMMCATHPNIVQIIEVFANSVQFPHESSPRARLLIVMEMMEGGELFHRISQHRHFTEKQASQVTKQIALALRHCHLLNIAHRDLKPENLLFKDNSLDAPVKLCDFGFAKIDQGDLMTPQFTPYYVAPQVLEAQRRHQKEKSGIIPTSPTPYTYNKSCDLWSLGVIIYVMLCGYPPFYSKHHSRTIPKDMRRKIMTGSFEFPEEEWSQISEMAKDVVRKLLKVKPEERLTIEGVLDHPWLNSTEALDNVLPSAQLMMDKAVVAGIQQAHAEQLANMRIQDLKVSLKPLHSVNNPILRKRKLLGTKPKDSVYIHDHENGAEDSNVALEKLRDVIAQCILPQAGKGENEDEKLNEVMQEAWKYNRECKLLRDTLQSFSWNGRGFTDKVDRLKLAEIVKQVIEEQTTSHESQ

Rsk3(h) = Rsk3(h) (human, UniProt Q15349 1-733)
BrSK1(h) = molecular target: T2, BrSK1(h) (human, UniProt Q8TDC3 1-778, limits assumed)
T2 sequence (looked up): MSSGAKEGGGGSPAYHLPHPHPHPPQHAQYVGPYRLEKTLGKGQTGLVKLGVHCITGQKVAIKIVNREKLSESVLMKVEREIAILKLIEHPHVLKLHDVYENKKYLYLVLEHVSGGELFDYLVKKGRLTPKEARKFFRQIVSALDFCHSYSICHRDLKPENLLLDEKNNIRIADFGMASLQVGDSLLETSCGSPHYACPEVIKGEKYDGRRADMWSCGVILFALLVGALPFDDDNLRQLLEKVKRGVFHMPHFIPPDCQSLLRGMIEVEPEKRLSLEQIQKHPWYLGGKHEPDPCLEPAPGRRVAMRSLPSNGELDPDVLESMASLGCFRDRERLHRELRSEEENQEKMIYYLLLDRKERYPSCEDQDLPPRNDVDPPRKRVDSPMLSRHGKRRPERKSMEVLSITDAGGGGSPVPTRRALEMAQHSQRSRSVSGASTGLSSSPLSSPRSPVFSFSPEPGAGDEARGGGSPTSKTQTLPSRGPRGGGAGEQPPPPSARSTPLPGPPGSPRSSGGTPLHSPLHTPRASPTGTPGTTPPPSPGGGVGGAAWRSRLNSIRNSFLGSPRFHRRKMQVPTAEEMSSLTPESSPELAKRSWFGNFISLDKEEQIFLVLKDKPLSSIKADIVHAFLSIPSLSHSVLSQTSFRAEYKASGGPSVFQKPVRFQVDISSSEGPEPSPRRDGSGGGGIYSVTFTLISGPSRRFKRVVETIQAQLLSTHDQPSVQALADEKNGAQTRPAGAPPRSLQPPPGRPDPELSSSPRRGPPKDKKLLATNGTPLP

Tie2(Y897S)(h) = Tie2(Y897S)(h) (human, UniProt Q02763 771-1124, limits assumed)
WNK3(h) = WNK3(h) (human, UniProt Q9BYP7 1-434, limits assumed)
VRK2(h) = VRK2(h) (human, UniProt Q86Y07 1-508, limits assumed)
CDK5/p25(h) = CDK5/p25(h) (human, UniProt Q00535 1-292; Q15078 99-307)
CHK2(R145W)(h) = CHK2(R145W)(h) (human, UniProt O96017 5-543, limits assumed)
CK1γ1(h) = CK1γ1(h) (human, UniProt Q9HCP0 1-422)
Abl(M351T)(h) = Abl(M351T)(h) (human, UniProt P00519 27-1130, limits assumed)
FGFR4(h) = FGFR4(h) (human, UniProt P22455 460-802, limits assumed)
Fgr(h) = Fgr(h) (human, UniProt P09769 1-529)
ACK1(h) = ACK1(h) (human, UniProt Q07912 110-476, limits assumed)
PKGη(h) = PKGη(h) (human)
SRPK2(h) = SRPK2(h) (human, UniProt P78362 1-688, limits assumed)
Tie2(R849W)(h) = Tie2(R849W)(h) (human, UniProt Q02763 771-1124, limits assumed)
TLK2(h) = TLK2(h) (human, UniProt Q86UE8 1-772, limits assumed)
CK2α2(h) = CK2α2(h) (human, UniProt P19784 1-350)
c-RAF(h) = c-RAF(h) (human, UniProt P04049 306-648, limits assumed)
EGFR(L858R)(h) = EGFR(L858R)(h) (human, UniProt P00533 696-1210, limits assumed)
FAK(h) = FAK(h) (human, UniProt Q05397 1-1052, limits assumed)

Row | Binder | % activity, 100 µM (GRK6(h)) [%] | % activity, 100 µM (Met(Y1248D)(h)) [%] | % activity, 100 µM (MSK2(h)) [%] | % activity, 100 µM (PRAK(h)) [%] | % activity, 100 µM (Rsk3(h)) [%] | % activity, 100 µM (BrSK1(h)) [%] | % activity, 100 µM (Tie2(Y897S)(h)) [%] | % activity, 100 µM (WNK3(h)) [%] | % activity, 100 µM (VRK2(h)) [%] | % activity, 100 µM (CDK5/p25(h)) [%] | % activity, 100 µM (CHK2(R145W)(h)) [%] | % activity, 100 µM (FGFR4(h)) [%] | % activity, 100 µM (Fgr(h)) [%] | further results
1 | FAKLAARLYRKALARQLGVAA [MMI-0300] | 147 | 102 | 56 | 128 | 76 | 67 | 83 | 77 | 161 | 89 | 33 | 28 | 60 | % activity, 100 µM (HIPK3(h)): 93%; % activity, 100 µM (PAK5(h)): 110%; % activity, 100 µM (CK1γ1(h)): 111%; % activity, 100 µM (Abl(M351T)(h)): 90%
2 | KAFAKLAARLYRKALARQLGVAA [MMI-0400] | 141 | 31 | 52 | 118 | 71 | 76 | 87 | 74 | 185 | 192 | 31 | 19 | 47 | % activity, 100 µM (ACK1(h)): 95%; % activity, 100 µM (PKGη(h)): 98%; % activity, 100 µM (SRPK2(h)): 97%; % activity, 100 µM (Tie2(R849W)(h)): 108%; % activity, 100 µM (TLK2(h)): 151%; % activity, 100 µM (CK2α2(h)): 96%; % activity, 100 µM (c-RAF(h)): 102%; % activity, 100 µM (EGFR(L858R)(h)): 52%; % activity, 100 µM (FAK(h)): 96%
